This is an account of results in article PMC12521527, “In vivo self-assembled nano-PROTAC for the dual degradation of AR and HSP90 to overcome castration-resistant prostate cancer resistance” (Signal Transduction and Targeted Therapy, 2025).

A short description of data set [1]: ThT assay of self-assembly (critical assembly concentration, assembly kinetics). The class given is physicochemical.
Data set [2] can be described thus: TEM of assemblies after PSMA addition. The class given is physicochemical. The settings on record: 40 μM, within 0.5 h of PSMA engagement.
For data set [3], the target named is T1, AR (Homo sapiens, UniProt P10275, T878A).
T1 construct: endogenous in cells; host or cells: LNCaP
T1 sequence (P10275 whole entry T878A): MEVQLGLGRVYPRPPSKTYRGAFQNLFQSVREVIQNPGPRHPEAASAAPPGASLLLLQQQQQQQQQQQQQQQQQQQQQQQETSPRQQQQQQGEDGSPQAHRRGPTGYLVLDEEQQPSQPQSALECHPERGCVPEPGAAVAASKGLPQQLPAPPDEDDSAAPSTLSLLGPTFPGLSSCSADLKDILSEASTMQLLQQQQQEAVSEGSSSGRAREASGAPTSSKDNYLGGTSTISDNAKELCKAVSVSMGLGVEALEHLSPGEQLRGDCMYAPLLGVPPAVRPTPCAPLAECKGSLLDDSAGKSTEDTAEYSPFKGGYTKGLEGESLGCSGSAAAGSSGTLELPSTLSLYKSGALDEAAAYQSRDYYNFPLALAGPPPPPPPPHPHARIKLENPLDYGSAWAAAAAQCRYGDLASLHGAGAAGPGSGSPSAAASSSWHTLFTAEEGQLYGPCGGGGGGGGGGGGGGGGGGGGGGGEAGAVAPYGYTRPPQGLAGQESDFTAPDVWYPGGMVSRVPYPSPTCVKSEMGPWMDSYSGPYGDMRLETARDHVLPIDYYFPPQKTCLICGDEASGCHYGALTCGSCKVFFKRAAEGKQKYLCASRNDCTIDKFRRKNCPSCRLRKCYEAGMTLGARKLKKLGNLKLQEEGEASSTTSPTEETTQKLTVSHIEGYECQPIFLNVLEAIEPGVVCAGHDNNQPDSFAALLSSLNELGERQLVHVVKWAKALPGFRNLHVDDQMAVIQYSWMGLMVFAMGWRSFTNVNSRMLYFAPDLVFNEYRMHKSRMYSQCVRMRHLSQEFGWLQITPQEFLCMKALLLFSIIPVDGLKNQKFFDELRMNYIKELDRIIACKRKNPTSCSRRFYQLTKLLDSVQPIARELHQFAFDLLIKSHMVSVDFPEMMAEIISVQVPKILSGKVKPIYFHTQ
T1 sequence (Q16531 whole entry, further chain): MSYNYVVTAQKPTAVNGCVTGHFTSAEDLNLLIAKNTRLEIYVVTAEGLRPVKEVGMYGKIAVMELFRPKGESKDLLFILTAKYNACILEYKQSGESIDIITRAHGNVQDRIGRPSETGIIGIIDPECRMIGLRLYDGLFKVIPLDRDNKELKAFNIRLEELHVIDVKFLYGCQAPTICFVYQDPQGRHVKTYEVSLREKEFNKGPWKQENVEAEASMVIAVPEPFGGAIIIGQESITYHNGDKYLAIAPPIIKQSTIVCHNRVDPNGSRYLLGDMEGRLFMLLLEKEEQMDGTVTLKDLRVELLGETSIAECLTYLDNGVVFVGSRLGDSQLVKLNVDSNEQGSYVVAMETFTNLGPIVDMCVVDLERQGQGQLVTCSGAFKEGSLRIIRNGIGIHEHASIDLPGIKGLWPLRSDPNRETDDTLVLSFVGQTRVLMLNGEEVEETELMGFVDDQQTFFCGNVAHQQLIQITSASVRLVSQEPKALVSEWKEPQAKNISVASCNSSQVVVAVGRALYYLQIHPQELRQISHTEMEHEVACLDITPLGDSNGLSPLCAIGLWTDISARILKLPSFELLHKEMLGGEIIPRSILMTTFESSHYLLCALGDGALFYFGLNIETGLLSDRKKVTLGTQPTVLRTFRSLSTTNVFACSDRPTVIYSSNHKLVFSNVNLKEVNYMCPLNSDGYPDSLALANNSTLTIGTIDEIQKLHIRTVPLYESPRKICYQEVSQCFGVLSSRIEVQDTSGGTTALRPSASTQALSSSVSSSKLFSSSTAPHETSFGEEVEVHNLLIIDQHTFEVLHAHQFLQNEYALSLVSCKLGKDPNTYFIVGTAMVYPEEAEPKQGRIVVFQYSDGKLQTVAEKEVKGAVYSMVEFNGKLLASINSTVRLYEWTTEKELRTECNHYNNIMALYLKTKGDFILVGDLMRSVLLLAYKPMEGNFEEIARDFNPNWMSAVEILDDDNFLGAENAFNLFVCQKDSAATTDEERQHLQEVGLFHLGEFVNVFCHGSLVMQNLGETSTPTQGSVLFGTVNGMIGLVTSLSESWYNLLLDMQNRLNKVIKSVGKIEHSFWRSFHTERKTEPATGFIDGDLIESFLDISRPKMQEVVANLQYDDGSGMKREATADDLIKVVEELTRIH
T1 sequence (Q96SW2 whole entry, further chain): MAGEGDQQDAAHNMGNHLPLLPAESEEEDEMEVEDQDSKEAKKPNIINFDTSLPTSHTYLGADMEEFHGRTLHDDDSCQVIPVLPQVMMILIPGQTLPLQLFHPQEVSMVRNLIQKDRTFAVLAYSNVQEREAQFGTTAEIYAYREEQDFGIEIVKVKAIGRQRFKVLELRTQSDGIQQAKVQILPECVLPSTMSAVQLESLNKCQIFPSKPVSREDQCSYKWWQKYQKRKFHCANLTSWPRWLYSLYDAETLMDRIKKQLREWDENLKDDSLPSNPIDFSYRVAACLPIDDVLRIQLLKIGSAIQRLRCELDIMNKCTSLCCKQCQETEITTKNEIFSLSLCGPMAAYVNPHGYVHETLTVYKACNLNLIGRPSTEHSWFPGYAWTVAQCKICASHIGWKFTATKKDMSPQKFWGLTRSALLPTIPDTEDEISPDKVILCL
The experiment in a line: Western blot AR degradation in LNCaP cells. The class given is cell-based. As to the method:
(§1) All uncropped blots are presented in Supplementary Fig. 26. j, k Representative 22Rv1 cell CLSM images of the degradation of AR after incubation with FITC-labeled Psa-AR for 12 h and quantitative analysis, n = 3 per group. Scale bar: 10 μm. l, m Representative 22Rv1 cell CLSM images of the degradation of HSP90 after incubation with FITC-labeled Psa-AR for 12 h and quantitative analysis, n = 3 per group. Scale bar: 10 μm. n AR-V7 expression in 22Rv1 cells after treatment with PBS, P-AR (20 μM), Psa-AR (20 μM) or Psa-AR (20 μM) combined with MG132 (2 μM) for 48 h, as determined by western blotting. β-Actin was used as an internal reference. o Results of apoptosis in 22Rv1 cells treated with PBS, P-AR (20 μM), or Psa-AR (20 μM) for 48 h, as detected by flow cytometry.
(§2) The pretreated cells were resuspended in lysis buffer containing 50 mM Tris-HCl (pH 8.0), 150 mM NaCl, 1% (v/v) Triton X-100, and protease inhibitors. The protein concentration was determined via a BCA kit (Applygen). Each sample ([…]) was subjected to SDS‒PAGE and then transferred to a PVDF membrane. The blots were blocked in 5% (wt/v) blocking buffer. After washing three times with TBST buffer (10 mM TBS solution containing 0.1% (v/v) Tween-20), the blots were incubated with primary antibodies at 4 °C on a shaker for 16 h. After washing with TBST buffer three times, the blot was incubated with secondary antibodies at room temperature on a shaker for 2 h. After being washed three times with TBST buffer, the blots were subsequently scanned on a Typhoon Trio Variable Mode Imager.

Data set [4] concerns AR. The experiment in a line: Western blot AR degradation in 22Rv1 (PSMA^KD) cells. The settings on record: 20 μM, 48 h. The class given is cell-based. The method, then:
as §1
The pretreated cells were resuspended in lysis buffer containing 50 mM Tris-HCl (pH 8.0), 150 mM NaCl, 1% (v/v) Triton X-100, and protease inhibitors. The protein concentration was determined via a BCA kit (Applygen). Each sample ([…]) was subjected to SDS‒PAGE and then transferred to a PVDF membrane. The blots were blocked in 5% (wt/v) blocking buffer. After washing three times with TBST buffer (10 mM TBS solution containing 0.1% (v/v) Tween-20), the blots were incubated with primary antibodies at 4 °C on a shaker for 16 h. […]
Background: A western blot detects proteins with antibodies after separation by electrophoresis.

A further data set has as its system HSP90. The experiment in a line: HSP90 degradation in LNCaP cells. The settings on record: time-dependent evaluation. The class given is cell-based. The method, then:
as §2

The subject of another data set is 22Rv1 cells. The experiment in a line: Annexin V/PI apoptosis by flow cytometry. The class given is cell-based. Conditions: 22Rv1, 20 μM, 48 h, n = 3. The method, then:
as §1
Background: Flow cytometry measures light scatter and fluorescence of single cells or particles in a stream.

Numbered stars: 1 amine (or outer) side, 2 acyl side, 3 side chain; on linkers, the order of the positions; unused ones are H or OH. Square brackets hold non-standard residues; d marks the D form. Peptide text beside a SMILES is read from it. * marks the point of attachment. X2 = CC1(C)C(=O)N(c2ccc(C#N)c(C(F)(F)F)c2)C(=S)N1c1ccc(C(=O)*)c(F)c1; X1 = O=C1CCC(N2C(=O)c3cccc(N(CC(=O)[*:2])[*:1])c3C2=O)C(=O)N1; EuK = O=C(O)CC[C@H](NC(=O)N[C@@H](CCCCN*)C(=O)O)C(=O)O; 2Nal = N[C@@H](Cc1ccc2ccccc2c1)C(=O)O

Broadly, the DC50 is the concentration at which degradation of the target reaches its halfway point. As to `CC1(C)C(=O)N(c2ccc(C#N)c(C(F)(F)F)c2)C(=S)N1c1ccc(C(=O)NCCCC[C@H](NC(=O)CNc2cccc3c2C(=O)N(C2CCC(=O)NC2=O)C3=O)C(=O)N[C@@H](CS)C(=O)N[C@@H](CCC(N)=O)C(=O)N[C@@H](Cc2ccc(O)cc2)C(=O)N[C@@H](CC(N)=O)C(=O)N[C@@H](CCC(N)=O)C(=O)N[C@@H](Cc2ccc(O)cc2)C(=O)N[C@@H](Cc2ccc(O)cc2)C(=O)N[C@@H](Cc2ccc3ccccc3c2)C(=O)NCCCC[C@H](NC(=O)N[C@@H](CCC(=O)O)C(=O)O)C(=O)O)c(F)c1` (some centres unmarked) [Psa-AR] (H-[X1]K(X2)CQYNQYY[2Nal]-EuK), the “lowering of CAC by PSMA binding” value in data set [1] (ThT assay, 95.5–10.9 μM) was determined as 8.76 fold. In addition, the “time to full assembly equilibrium, PSMA-bound” value in data set [1] (ThT kinetic curve, 40 μM, PSMA added) was 12 h. Besides, in data set [1] (ThT kinetic curve, 40 μM, PSMA added, n = 3), the “t1/2 of self-assembly (50% assembly), PSMA-bound” value was found to be 1.4 h. Further, the “time to full assembly equilibrium, unbound” value in data set [1] (ThT kinetic curve, 40 μM, without PSMA) is recorded as 60 h. Besides, in data set [1] (ThT kinetic curve, 40 μM, without PSMA, n = 3), the “t1/2 of self-assembly (50% assembly), unbound” value turned out to be 11.4 h. Also, in data set [1] (standard ThT assay, PSMA added, n = 3, P-AR tested up to 50 μM), the “critical assembly concentration (CAC) with PSMA added” value came to 10.9 µM. Moreover, in data set [1] (standard ThT assay, without PSMA, n = 3), the “critical assembly concentration (CAC)” value was found to be 95.5 µM. In data set [2], the “diameter of spherical nanoparticles” value is listed as 200–250 nm. Moreover, on AR [3] (LNCaP cells, time-dependent evaluation), the AR degradation rate is 97%. Moreover, the DC50 at AR [3] (read-out: DC50 for AR protein degradation, LNCaP cell line, 1 to 100 μM) was found to be 11.4 µM. Further, the “superior AR degradation efficiency relative to P-AR” value at AR [3] (western blot, LNCaP, 20 μM, 48 h) is on record as 49%. In the data set on AR [4], the “AR protein degradation in PSMA-knockdown cells” value is “failed to induce significant protein degradation”. Further, the HSP90 degradation rate with HSP90 was found to be 70%. In the data set with 22Rv1 cells, the “total apoptotic cells (early and late phases)” value is listed as 75%.
